Experimental data published in the domain aggregation screens of Martell et al. (2025).

Test: soluble fraction after stress (log2 fold change); higher = more stays soluble; pooled small domains, quantitative proteomics
Settings: stress: 50 degC
Method in brief: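 Custom libraries of small protein domains were pooled and measured in a high-throughput format, with quantitative proteomics as the read-out. Each library was stressed at 50°C. The value is the log2 fold change in the amount of each protein that stays soluble after stress, used as a measure of aggregation propensity; higher values mean more of the protein stays soluble.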

Sequence	soluble fraction (log2)
HMKVEIVRVVKDIHIGDEITKDMVRTVEVGGYNLPDGVVKDTATVIGRFASADMVPGDYIISSKIADAP	-0.121
HMNRPQDLGEPYDGQFREHPEAWAFYAAQSPSYRRSASWWVLGAKQEVTRQRRLAALIDASAQGTRIPALT	-1.09
HMDTIRINSGSTVKEVAEYLGIPVPEVIKKLMSMGELATLTKTLSDDHIEVLAEEFEKKIKIVHVGEEAD	0.0343
HMSIYDAPIEDLKFSTRIFNSLKRADIHTVADLIAHSRDDLMKVRNLGATSLDELIEKLGTHGLQLADP	-0.254
HMGNPSGLPLPRFASTRSEPINVRVGPGQKYDIAWTYLKSGIPVEIIQEFDTWRKIRDFDGAEGWIHQNLL	-0.937
HMGLTRRAQLEVADANLKRLYPGMHQSWVTAIAEYLHSSYWRYINSLEPEYAASIQRVYEQHIDAM	0.0529
HMENNIRLSVPDTESGQRIDSYLAEQIPGLTRSAVQNLLAEQAVTIAGKAVKKNYKLLGGEDILVQLPEVR	0.216
HMLDKKKHLEQGRKIIEDQLAKYKIQPSFDTLKKLSAYYGLNNKEQLYAQVGMGFLELENLDEILQ	≥ 0.62
HMAVENTGLSKRELEILQMMARGMSNQEIGDALFISLSTVKTHVASIFSKLQAVRRTQAVGIAKSLKII	-0.917
HMYIENIGDYLKSHDIKPSYQRIKVFEYLMQHKNHPTVDMIYKSLVDEIPTLSKTTVYNTLNLFIEKQI	-1.74
HMGKEWPTPDNVEEWKKLVKKARLWPIQADQAQSEETRERNRKKWELFVAYAKRFGYRAGIGETGKPFVNN	-0.443
HMNGKPDMTPIPAGSRNNDLHAWAYGRLLNHPDNAEAIRRDLFERGQTSGLKESELETIWQSIRRQLGGD	0.249
HMTIRIPEEEYLTRAKRAAQMTAERGLDALFLFGSEGDFQNVRYFTSVTPIWERLGVVITASGKAAMLTGP	-0.0521
HMEELELTIDGEMVGRIDKQLGHHFDQFSRSQIQHWIEDGHVLVNGKQVKPKYKLLVGDHVQIIPEEPQK	0.25
HMSLIHEQSLKEIRIFINNLPESLRTAFTLREQDGLSYEEISKITDTPIGTVRSRIFRARESILEHINEEL	-1.89
HMSSYETVTLNGQRYFKYKVKSGEGLYAISRMFSTPIAEIIRHNPSSNAGLKNGQELLIPVN	0.00287
HMKKEDFLEILRDYLKKGFSEDEVMDILRDYEEYFVDGIIEGKSEIEIIQSLGSPKEIANELLAES	-0.202
HMKQISNTDELESMAKNIIQENPDQVSKFKNGNEKLFGWFVGQMMKSTGGTANPKVVNEILKNLLN	0.152
HMVSLSNQVFEKIEYDILSGKYKIGEIISEKRLSSELGVSRTPIREALGRLSEEGLVGDSPSGTVVLGI	-0.431

Sequence	soluble fraction (log2)
HMSSLEQVYPNPVSSILKLNSFIKNYKILNATGHEVLKGSGNTINVGKLPSGSYFLITSENYSIKFIK	-1.24
HMAHESYVKEQLLLSLTNHEDPIMQISLIEQLTKMHERNIIHELEKLTVDVQTNEEVKVQAYASLLILS	-0.53
HMDYLYHNGKEIDQGSIMYKMEDYSDGIFELQSAKYADGTELDEKELEELESTQELIDWVMIDFVS	0.42
HMGVAFAPVEKIKHTKTGNELYAVKLAGRVEAEVFGQLRQKAKEYDGYYSKFSRAFLFSTPEDAEAFRAE	0.0208
HMSSKIKYSEFITMLDKGEVESVVLKSDTLTITLKHGTGVAAQTKTTTLMEDLSELTKRLEKAGIKDFDK	0.0396
HMNPSRPASKEELLGLFEHLERALDAVTFFRPAEKKPVVVQTLRAMLTKASFTEQDIRTMRGVIAALEN	-1.5
HMETAESLLRRLIMLEDPAMQNAMYVLAVMLERGKQLVERAAKPHESGGILRVYEHKKSGDTFVVLDPR	-0.511
HMQPDPAFVAWVDANPWYKENRTLRALVHDYAEEVKRQEPALIGTAFLDRVKQLVQSEHPELFD	-0.0926
HMKGTLPEMITSREEVVLKFMVNGWDAKRIASELDISVLTVRKHIANIYEKLHVQSKAEIISMAHQQKWFN	-1.52
HMLTNNYKNDKALRFAKNHGIHESNILKLVSLYENAPEKGFNAQSIAELLGITPRSASRILVKLLQHNLIR	-1.42
HMESNWLTYAKRIQSIADTGMTFAVDDFDKERYQELADISSKMLADLSNIPIGRIENLLGPLGQ	-0.75
HMDYIITHYPDNKRFETQVDGVVAFVQYRLSGDKLDIIHTIVPPAIGGRGIAAALVKYAYDYAIENGMK	-0.76
HMNIILFLDELHRLLSDLPPEERNQAIKYYEDYFEDAGPENEQAILKELGSPQELANQIKATT	-0.627
HMEHVVFEVTESGELENNTAVKHVLNSFNNKSLNLAIDDFGTGYSNLRYIRDMMFGIIKIDRLFIKDINES	-0.018
HMWNKGETKIPTQAQNELIKRRQAGATWTSLSEWLKATYGIDIHRTNIQRWYDKEVYLDQEN	-0.316
HMEIPTPAELREKRIRMGLKQADVARMAGISQSMVARIESGSVDPRVSTLAKIVEVLQAAER	-0.175
HMQNVFARKNLTSVSVDKLGEEEILLFKQSFESKNLTSSEALRDLSKKGMSEAELRKLKVRLTQL	-0.074
HMRPRGTRLPTGWTPSSDALDWTKAEKPGLDPLQTLEKFRDYWTAQPGQKGVKTDWDATWRNWVRREIP	0.172
HMETDGGDLTPRERDVLSLIGRGLRNAEAASALGLSEHTIAGHIKSVYSKLGISTRAEAALLASRLGL	-0.0786
